Laboratory results: the nanobody polyreactivity screen of Harvey et al. (2022)

Assay: yeast display, Sf9 membrane polyspecificity reagent, FACS + sequencing; frameworks hold sequencing errors
How it was run: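 Using colony PCR, genes from sorted yeast display clones were amplified, then sequenced on MiSeq at 2 × 250 and filtered by CDR length. The clones had been stained with 10% biotinylated, detergent-solubilized Sf9 membrane reagent for 1 hour at 4 °C and sorted by FACS into low and high (top ~1%) gates on anti-HA and streptavidin fluorescence. Polyreactivity labels come from the gate of origin.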

Row | Sequence | polyreactivity (PSR sort gate)
1 | QVHLVESRGGLVQAGGSLRLSCAASGMGWNRHAPGKERELVATIPWSDGITYADSVKGRFTISRDNAKNTVYLQMNSLKQEVTAVYYCNADWDQTGTVFFSFGLREMDSWGQGTQVTVSS | low polyreactivity
2 | QVHLVESRGVLVQAGGSLRLSCAASGFTFNRNAMGWYRQAPGKERELVAAISTSGGRTYYADSVKGRFTISRDNAKNTVYLHMNSLKPEDTAVYYCAADGIYPVGVDYWGQGTQVTVSS | high polyreactivity
3 | QVHLVESRGVLVQAGGSLRLSCAASGRTFQPYAMGWYRQSPGKERELVADITWNTGRTYYADSVKGRFTISRDNAKNTVYLQMNSLIPEDTAVYYCAGDDLGDYRFYKIYDYWGQGTQVTVSS | high polyreactivity
4 | QVHLVESVGGLDQAGGSLRLSCAASGFIFVRYAMGWYRQAHGKEREFVAVISRRGGSTHYADSVKARFTISRDNAKNTVYLQMNSLKPEDTAVYYCNVRQGGPTVTWEYDYWGQGTQGTVSS | high polyreactivity
5 | QVHLVESVGGLVQAGGSLRLSCAASGFIFNRNAMGRYRQAPGKERELVAAITRAGSTSYADSVKGRFTISRDNAKNTVYLQMNSLKPEDTGVYYCAAKPFWLYAPRGWRYHYGYWGQGTQVTVSS | high polyreactivity
6 | QVHLVESVGGLVQAGGSLRLSCAASGRTFGGYAMGWYRQAHGKERELVAAIRRSGGSTYYADSVKGRFTISRDNAKNTVYLQMNSVKPEDTAVYYCAASGIYNVRMYYWGQGTLVTVSS | high polyreactivity
7 | QVHLVESWGCLVQAGGSLRLSCAASGSTFTGYAMGWYRHAPGKESEMVAAISRSGGSTSAADSVKGRFTISRDNAKNTVYLQMNSLKPEDTAVYYCAAQVQGTTRDKQRGGIGELDYWGQGTQVTVSS | low polyreactivity
8 | QVHLVESWGGLVQAGGSLRLSCAASGSTFSDYAMGWYRQAPGKERELVAGITGGGGTYYADSVKGRFTISRDNAKNTVSLHMNSLTPEDTARYYCAAGRRHGFGYWGQGTQVTVSS | low polyreactivity
9 | QVHLVETGGGLVQAGGSLRLSCAASGSTFSFNAMGWYRQAPGKERELVAAISTSGGDTYYADSVKGRFTISRDNAKNTVYLQMNSLKPEDTAVYYCAAEYQVPGGSWMDYWGQGTQVTVSS | high polyreactivity
10 | QVHLVQSGGGIVQAGGSLRLSCAASGIIIRRYVMGWYRQAPGKERELVATISSSGGSTYYADSVKGRFTISRDNAKTTVYLQMNSLKPEDTAVYYCAVRYYGSGRYYYTYYSWGQGTQVTVSS | high polyreactivity
11 | QVHRGESGGGLVQAGGSLRLSCPASGFIFRYYPMGWYRQAPGKESELVASISYSGGTTYYADSVKGRFTISRDNAKNTVYLQMNSLKPEDTAVYYCNVYSRTHYQTYTDDYWGQGTQVTVSS | high polyreactivity
12 | QVKHVESGGGLVQAGGSLRLSCAASGFTFYTYAMGWYRQKPGKESELVATISSGGRTNYADSVKGRFTISRDNAKNTVYLQMNSLKPEDTAVYYCYKRHRGGAVRFDSWGQGTQVTVSS | low polyreactivity
13 | QVKHVESVGGLVQAGGSLRLSCAASGITFVRNAMGWSRQAPGKETDLVAAISSGGGSTYYADSVKGRFTISRDNAKNTVYLQMNSLKPEDTAVYYCNAQGFIYYWLRYDYWGQGTQVTVSS | high polyreactivity
14 | QVKILESGGGLVQAVCSLRLSCASGSTYLYAMGRYRQAPVKEREMVATISSTGSTYYADSVKGRFTISRDNAKNTVYLQMNSLKPEDTAVYYCAADVCNNGWIYGSYDEYDYWGQGTQVTVSS | high polyreactivity
15 | QVKLEESGGGLVQAGGSLRLSCAASGFIFGSYAMGWYRQAPGKERELVAVISSSGGRTYYADSVKGRFTISRDNAKNTVYLQMNSLKPEDTAVYYCAAPWIARKYSPSEYDWGQGTQVTVSS | high polyreactivity
16 | QVKLVDSGVGLVQAGVSLRLSCAASGSIFGTYAMGWYRQAPGKERELVAAISYRGTSTYYADSVKGRFTISRDNAKNTVYLQMNSLKPEDTAVYYCAARHGYTYRSGYYYWGQGTQVTVSS | high polyreactivity

Row | Sequence | polyreactivity (PSR sort gate)
17 | QVKLVESAGGLVQAGASLRLSCAPSGITFKRYAMGWSSQQPGKQSELVAAITSGGSTHYADSVKGRFTISRDNAKNTVYLQMNTLKPEDTAVYYCATRRYKWGVRYDYWGQGTQVTVSS | high polyreactivity
18 | QVKLVESAGGLVQAGGSLRLSCPASGRTFYRYVMGWSRQEPGKERELVAAITPGGSTYADSVKGRFTISRDNAKNTVYLQMNSLKPEDTAVYYCNKRKASSSGYNYWGQGTQVTVSS | low polyreactivity
19 | QVKLVESCGGLVQAGGSLRLSCAASGFIFRNYAMGWYRQARGKERELVAAIDYSVGSTNYADSVKWRFTISRDNAKNTVYLQMNSLKPEDTAVYYCNAEYTWHRGYDYFGQGTQVTVSS | low polyreactivity
20 | QVKLVESGGALVQAGGSLRLSCAASGSTFGWYAMGRYRQAPGKERELVAGISSGGASTYYADSVKGRFTISRDNAKNTFYLQMNSLKPEDSAVYYCAKDQIFRGYKTKFGYWGQGTQLTVSS | low polyreactivity
21 | QVKLVESGGALVQAGGSLRLSCPASGRTFGQTAMGWYRQAPGKERELVAAITWSDDDTYYADSVKGRFTISRDNAKNTVYLQMNSLKPEDTAVYYCAATYPYRQYDYWGQGTQVTVSS | low polyreactivity
22 | QVKLVESGGGIVKAGCSLRLSCGASGLTYNTYDMGWYRQAPGKERELVADISRGRGSTYYADSVKGRFTISRDNAKNTVYLQMHSLKPEDTAFYYCNAEKRSSYLMYDYWGQGTQVTVSS | high polyreactivity
23 | QVKLVESGGGLDKAGGSLRLSCAASGLIFYLYPKGWYRQAPGQERELVAAISRSGDTTYYADSVKGRFTISRDNAKNTVYLQMNSLKPEDTAVYYCAADDYYKFDYWGQGTQVTVSS | low polyreactivity
24 | QVKLVESGGGLVKAGGRLRLSCAASGRTFWYNAMGRYRPAPGKESELVAAINFSGGITYYADSVKGRFTISRDNAKNTVYLQMNSLKPEDTAVYYCNAVSRGRDAAGNYWGQGTQVTVSS | high polyreactivity
25 | QVKLVESGGGLVKAGGSIRLSCAASGFTFGVYAKGSYRQAPAKERELVAAISTTVGSTYYADSVKGRFTISRDNAKNTVYLQMNSLKPEVTAVYYCSAEYTGYINYYIYEYWGQGTQVTVSS | low polyreactivity
26 | QVKLVESGGGLVQAGGILRLSCAASGLIFTTYAMGWYRQAPGKERELVAVISGCGSTSYADSVKGRFTISRDNAKNTVYLQMNSLKPEDTAVYYCAADKPVSQGPIPGYTNDYWGQGTQVTVSS | low polyreactivity
27 | QVKLVESGGGLVQAGGRLRLSCAASGSIFLLYPMGWYRQAPGKERELVAAISSGGSTYADSVKGRFTISRDNAKNTVYLLLNSLKPADTAVYYGAKVGGWYDPYTYGYSEYGYWGNGTQVTVSS | low polyreactivity
28 | QVKLVESGGGLVQAGGSHRLSCPASGRIFYPYAMGWYRQAPGKESELVAAISWSTVSTYYADSVKGRFTISRDNAKNNVYLQMNSLKPEDTAVYYCAARLYFSSSLRCVDFWGQGTQVTVSS | high polyreactivity
29 | QVKLVESGGGLVQAGGSLLLSCAASVLTFYRYVIVCYRQEPGKERELVAAITKSGGSTYYADSVKGRFTISRDNAKNTVYLQMNSLKPEDTAVYYCAVRSYWRGDYWGQGTQVTVSS | high polyreactivity
30 | QVKLVESGGGLVQAGGSLRLICAASGNTFGPYDMGWYRQAPGKERQLVAGITSGGSTYYADSVKGSFTITRDNAKNTVYLQMNSLKPEDTAVYYCAADYYLWVYWYDYWGQGTQVTVSS | high polyreactivity
31 | QVKLVESGGGLVQAGGSLRLSCAASGFTFANYAMGWYRQAPGKEREFVAAITKGGGSTNYADSVKGRFTISRDNAKNTVYLQMNSLKPEDTAVYYCNADYFVWYIGRVFSRYGYWGQGTQVTVSS | low polyreactivity
